For 8 molecules, FACS geometric mean fold change over Jurkat parental results are on record in patent US20240101668A1.

Numbering of substitutions follows the chain as printed.

B1: Polypeptide No. 289 (scFv, V domains shown)
VH: QVQLVQSGAEVKKPGASVKVSCKASGYTFTSYGISWVRQAPGQGLEWMGWMNPISGNTDYAPNFQGRVTMTRDTSTSTVYMELSSLRSEDTAVYYCVVERRREVGMDVWGQGTTVTVSS
VL: DIQMTQSPSSLSASVGDRVTITCQASQGITSYLNWYQQKPGKAPKLLIYKASSLESGVPSRFSGSGSGTDFTLTISSLQPEDFATYYCQQGYSTPLTFGGGTKVEIKR
B2: Polypeptide No. 251 (scFv, V domains shown)
VH: QVQLVQSGAEVKKPGSSVKVSCKASGGTFSSDAINWVRQAPGQGLEWMGGIIPIVGTPTYAQKFQGRVTITADESTSTAYMELSSLRSEDTAVYYCAKGLAFGVFDGLDVWGQGTTVTVSS
VL: EIVMTQSPATLSVSPGERATLSCRASQSVSSNYLAWYQQKPGQAPRLLIYDVSTRATGIPARFSGSGSGTEFTLTISSLQSEDFAVYYCQQYGSSTLTFGGGTKVEIKR
B3: Polypeptide No. 258 (scFv, V domains shown)
VH: QVQLVQSGAEVKKPGASVKVSCKASGGTFGSYAISWVRQAPGQGLEWMGWINPNTGGAHYAQKFQGRVTMTRDTSTSTVYMELSSLRSEDTAVYYCARVGAAAGYQHWGQGTLVTVSS
VL: DIQMTQSPSSLSASVGDRVTITCRASQSIKGALAWYQQKPGKAPKLLIYSASNLQSGVPSRFSGSGSGTDFTLTISSLQPEDFATYYCQQYNSYPLTFGGGTKVEIKR
B4: Polypeptide No. 264 (scFv, V domains shown)
VH: QVQLVQSGAEVKKPGSSVKVSCKASGYTLTELSMHWVRQAPGQGLEWMGGIIPISSATSIPQKFQGRVTITADESTSTAYMELSSLRSEDTAVYYCARGALYSSSPVRVVAGTKGWFDPWGQGTLVTVSS
VL: B3 VL with S28D, K30S, G31N, A32Y, S50A, N53S, N92Y
B5: Polypeptide No. 255 (scFv, V domains shown)
VH: QVQLVQSGAEVKKPGSSVKVSCKASGYTLTELSMHWVRQAPGQGLEWMGGIIPISGTVTYAQKFQGRVTITADESTSTAYMELSSLRSEDTAVYYCANKGQQLVRGYFQHWGQGTLVTVSS
VL: DIQMTQSPSSLSASVGDRVTITCQASHDIRNSVNWYQQKPGKAPKLLIYATSSLQSGVPSRFSGSGSGTDFTLTISSLQPEDFATYYCQQSYNTPFTFGQGTKLEIKR
B6: Polypeptide No. 267 (scFv, V domains shown)
VH: QVQLVQSGAEVKKPGSSVKVSCKASGYTLTSFGISWVRQAPGQGLEWVGMIIPLSGTTHYAQKFQGRVTITADESTSTAYMELSSLRSEDTAVYYCANLYGGNAYYYYGMDVWGQGTTVTVSS
VL: B5 VL with Q24R, H27Q, R30S, S32F, N34A, T51A, Y92F, N93D, F96Y
B7: Polypeptide No. 277 (scFv, V domains shown)
VH: QVQLVQSGAEVKKPGSSVKVSCKASGYTFTGYYMHWVRQAPGQGLEWMGWIDPNSGGTNYAQKFQGRVTITADESTSTAYMELSSLRSEDTAVYYCARDVDTAMVTDYWGRGTLVTVSS
VL: EIVMTQSPATLSVSPGERATLSCRASQSVDNLVGWYQQKPGQAPRLLIYDISSRATGIPARFSGSGSGTEFTLTISSLQSEDFAVYYCQQYGRSPITFGQGTRLEIKR
B8: Polypeptide No. 266 (scFv, V domains shown)
VH: QVQLVQSGAEVKKPGSSVKVSCKASGYSLTELSIHWVRQAPGQGLEWMGGINPISGTANYAQKFQGRVTITADESTSTAYMELSSLRSEDTAVYYCARGTVRLNWFDPWGQGTLVTVSS
VL: EIVMTQSPATLSVSPGERATLSCRASQSVGSQLGWYQQKPGQAPRLLIYGASTRATGIPARFSGSGSGTEFTLTISSLQSEDFAVYYCQQSFSTPLTFGGGTKVEIKR

For one test, the target named is huFLT3-T227 stably expressed on Ramos cells (human) (UniProt P36888). The test is described as follows: FACS on cells.
Consider B1, for which the FACS geometric mean fold change over Jurkat parental is below 2 fold.

B2: the FACS geometric mean fold change over Jurkat parental was below 2 fold.

Turning to B3, the FACS geometric mean fold change over Jurkat parental was below 2 fold.

Consider B4, for which the FACS geometric mean fold change over Jurkat parental was below 2 fold.

Regarding B5, the FACS geometric mean fold change over Jurkat parental is below 2 fold.

As to B6, the FACS geometric mean fold change over Jurkat parental was below 2 fold.

For B7, the FACS geometric mean fold change over Jurkat parental is below 2 fold.

For the molecule B8, the FACS geometric mean fold change over Jurkat parental is below 2 fold.

In another test the target is huFLT3-M227 stably expressed on Ramos cells (human) (UniProt P36888). The test is described as follows: FACS on cells.
For the molecule B1, the FACS geometric mean fold change over Jurkat parental was below 2 fold.

As for B2, the FACS geometric mean fold change over Jurkat parental was below 2 fold.

As for B3, the FACS geometric mean fold change over Jurkat parental is below 2 fold.

In the case of B4, the FACS geometric mean fold change over Jurkat parental is below 2 fold.

For the molecule B5, the FACS geometric mean fold change over Jurkat parental was below 2 fold.

Consider B6, for which the FACS geometric mean fold change over Jurkat parental is below 2 fold.

Regarding B7, the FACS geometric mean fold change over Jurkat parental was below 2 fold.

For B8, the FACS geometric mean fold change over Jurkat parental is below 2 fold.
